The target of this test is T1, phosphorylated, GFP-tagged HK MtrB (cytosolic catalytic domain) (M. tuberculosis, UniProt P9WGK9 234-567).
T1 construct: also called MtrB~P; P~MtrB-GFP
T1 sequence: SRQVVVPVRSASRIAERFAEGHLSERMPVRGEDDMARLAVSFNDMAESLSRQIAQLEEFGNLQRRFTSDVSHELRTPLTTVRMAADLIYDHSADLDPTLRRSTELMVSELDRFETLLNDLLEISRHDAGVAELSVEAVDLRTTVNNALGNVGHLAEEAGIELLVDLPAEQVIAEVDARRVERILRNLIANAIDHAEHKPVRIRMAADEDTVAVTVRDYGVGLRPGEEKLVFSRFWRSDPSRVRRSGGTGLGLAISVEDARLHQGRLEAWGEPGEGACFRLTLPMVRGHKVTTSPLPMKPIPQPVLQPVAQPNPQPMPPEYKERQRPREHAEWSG
Nature of the test: MST. The conditions noted are these: both partners purified.

B1: NarL^D61N, phosphor-defective mutant of NarL (natural protein)
chain: MSNPQPEKVRVVVGDDHPLFREGVVRALSLSGSVNVVGEADDGAAALELIKAHLPDVALLNYRMPGMDGAQVAAAVRSYELPTRVLLISAHDEPAIVYQALQQGAAGFLLKDSTRTEIVKAVLDCAKGRDVVAPSLVGGLAGEIRQRAAPVAPVLSAREREVLNRIACGQSIPAIAAELYVAPSTVKTHVQRLYEKLGVSDRAAAVAEAMRQRLLD
In general, Kd refers to the equilibrium constant for the complex coming apart. A higher Kd goes with lower affinity. B1: the affinity, expressed as Kd, was 78 ± 13 nM.

B2: MtrA^D56N, phosphor-defective mutant of MtrA (natural protein)
chain: MDTMRQRILVVDDDASLAEMLTIVLRGEGFDTAVIGDGTQALTAVRELRPDLVLLNLMLPGMNGIDVCRVLRADSGVPIVMLTAKTDTVDVVLGLESGADDYIMKPFKPKELVARVRARLRRNDDEPAEMLSIADVEIDVPAHKVTRNGEQISLTPLEFDLLVALARKPRQVFTRDVLLEQVWGYRHPADTRLVNVHVQRLRAKVEKDPENPTVVLTVRGVGYKAGPP
B2 yielded a dissociation constant Kd of 371 ± 130 nM.

The record behind these values is article PMC10368727, “Sequestration of histidine kinases by non-cognate response regulators establishes a threshold level of stimulation for bacterial two-component signaling” (Nature Communications, 2023).
